The source of these data is the supplement of paper PMC5998384.

For series [1], the system named is HeLa Kyoto. Description: melting temperature (median over replicates), in situ; higher = more thermally stable.
The test system of series [2] is HeLa Kyoto. Description: solubility change mitosis vs G1/S (difference of NP-40 vs SDS log2 ratios) (log2 ratio difference); higher = more soluble in mitosis.
For series [3], the system named is HeLa Kyoto. Put plainly: solubility in G1/S (NP-40 vs SDS abundance) (log2 ratio); higher = more soluble. The settings on record: cell cycle stage: G1/S.
Series [4] relates to HeLa Kyoto. Description: thermal stability score vs G1/S (z-score of summed log2 fold changes over temperatures); higher = more thermally stable than in G1/S.
Setting [5] is: cell cycle stage: early G1 (4.5 h after nocodazole release).
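Wherever melting temperature (median over replicates), in situ is given: HeLa Kyoto cells synchronized by double thymidine or nocodazole block, proteins quantified by TMT10plex mass spectrometry, three independent biological replicates.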
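Wherever solubility change mitosis vs G1/S (difference of NP-40 vs SDS log2 ratios) is given: synchronized HeLa Kyoto cells (double thymidine block for G1/S, nocodazole release for mitosis), protein amounts in NP-40 versus SDS lysates quantified by mass spectrometry, three biological replicates.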
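Wherever solubility in G1/S (NP-40 vs SDS abundance) is given: HeLa Kyoto cells arrested at G1/S by double thymidine block, proteins quantified by TMT10plex mass spectrometry in mild NP-40 versus SDS extracts, three biological replicates.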
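Wherever thermal stability score vs G1/S (z-score of summed log2 fold changes over temperatures) is given: synchronized HeLa Kyoto cells, proteins quantified by TMT10plex mass spectrometry, three biological replicates, mitosis taken 0.5 h after nocodazole release, G1/S directly after double thymidine block.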

Regarding “MWAVLRLALRPCARASPAGPRAYHGDSVASLGTQPDLGSALYQENYKQMKALVNQLHERVEHIKLGGGEKARALHISRGKLLPRERIDNLIDPGSPFLELSQFAGYQLYDNEEVPGGGIITGIGRVSGVECMIIANDATVKGGAYYPVTVKKQLRAQEIAMQNRLPCIYLVDSGGAYLPRQADVFPDRDHFGRTFYNQAIMSSKNIAQIAVVMGSCTAGGAYVPAMADENIIVRKQGTIFLAGPPLVKAATGEEVSAEDLGGADLHCRKSGVSDHWALDDHHALHLTRKVVRNLNYQKKLDVTIEPSEEPLFPADELYGIVGANLKRSFDVREVIARIVDGSRFTEFKAFYGDTLVTGFARIFGYPVGIVGNNGVLFSESAKKGTHFVQLCCQRNIPLLFLQNITGFMVGREYEAEGIAKDGAKMVAAVACAQVPKITLIIGGSYGAGNYGMCGRAYSPRFLYIWPNARISVMGGEQAANVLATITKDQRAREGKQFSSADEAALKEPIIKKFEEEGNPYYSSARVWDDGIIDPADTRLVLGLSFSAALNAPIEKTDFGIFRM [MCCC2]”, the values for the melting temperature with HeLa Kyoto [1] (cell cycle stage: G1/S) and in the series with HeLa Kyoto [1] (cell cycle stage: mitosis) were 53.2 °C and 53.7 °C, respectively. Also, the “solubility change mitosis (log2)” value in the series with HeLa Kyoto [2] is -0.128. Further, the “solubility in G1/S (log2)” value in the series on HeLa Kyoto [3] worked out at 0.0208. In addition, the thermal stability score is -3.15 in the series on HeLa Kyoto [4] (setting [5]) and -2.72 in the series on HeLa Kyoto [4] (cell cycle stage: mitosis).

Take “MWDQGGQPWQQWPLNQQQWMQSFQHQQDPSQIDWAALAQAWIAQREASGQQSMVEQPPGMMPNGQDMSTMESGPNNHGNFQGDSNFNRMWQPEWGMHQQPPHPPPDQPWMPPTPGPMDIVPPSEDSNSQDSGEFAPDNRHIFNQNNHNFGGPPDNFAVGPVNQFDYQHGAAFGPPQGGFHPPYWQPGPPGPPAPPQNRRERPSSFRDRQRSPIALPVKQEPPQIDAVKRRTLPAWIREGLEKMEREKQKKLEKERMEQQRSQLSKKEKKATEDAEGGDGPRLPQRSKFDSDEEEEDTENVEAASSGKVTRSPSPVPQEEHSDPEMTEEEKEYQMMLLTKMLLTEILLDVTDEEIYYVAKDAHRKATKAPAKQLAQSSALASLTGLGGLGGYGSGDSEDERSDRGSESSDTDDEELRHRIRQKQEAFWRKEKEQQLLHDKQMEEEKQQTERVTKEMNEFIHKEQNSLSLLEAREADGDVVNEKKRTPNETTSVLEPKKEHKEKEKQGRSRSGSSSSGSSSSNSRTSSTSSTVSSSSYSSSSGSSRTSSRSSSPKRKKRHSRSRSPTIKARRSRSRSYSRRIKIESNRARVKIRDRRRSNRNSIERERRRNRSPSRERRRSRSRSRDRRTNRASRSRSRDRRKIDDQRGNLSGNSHKHKGEAKEQERKKERSRSIDKDRKKKDKEREREQDKRKEKQKREEKDFKFSSQDDRLKRKRESERTFSRSGSISVKIIRHDSRQDSKKSTTKDSKKHSGSDSSGRSSSESPGSSKEKKAKKPKHSRSRSVEKSQRSGKKASRKHKSKSRSR [PNISR]”: the melting temperature in the series with HeLa Kyoto [1] (cell cycle stage: G1/S) amounted to 59.9 °C; in the series with HeLa Kyoto [1] (cell cycle stage: mitosis) it was 54.5 °C. Besides, in the series with HeLa Kyoto [2], the “solubility change mitosis (log2)” value came to 0.456. Besides, in the series on HeLa Kyoto [3], the “solubility in G1/S (log2)” value is -0.83. Besides, the thermal stability score in the series with HeLa Kyoto [4] (setting [5]) was -6.44; with HeLa Kyoto [4] (cell cycle stage: mitosis) it was -8.27.

For the sequence “MWGSDRLAGAGGGGAAVTVAFTNARDCFLHLPRRLVAQLHLLQNQAIEVVWSHQPAFLSWVEGRHFSDQGENVAEINRQVGQKLGLSNGGQVFLKPCSHVVSCQQVEVEPLSADDWEILELHAVSLEQHLLDQIRIVFPKAIFPVWVDQQTYIFIQIVALIPAASYGRLETDTKLLIQPKTRRAKENTFSKADAEYKKLHSYGRDQKGMMKELQTKQLQSNTVGITESNENESEIPVDSSSVASLWTMIGSIFSFQSEKKQETSWGLTEINAFKNMQSKVVPLDNIFRVCKSQPPSIYNASATSVFHKHCAIHVFPWDQEYFDVEPSFTVTYGKLVKLLSPKQQQSKTKQNVLSPEKEKQMSEPLDQKKIRSDHNEEDEKACVLQVVWNGLEELNNAIKYTKNVEVLHLGKVWIPDDLRKRLNIEMHAVVRITPVEVTPKIPRSLKLQPRENLPKDISEEDIKTVFYSWLQQSTTTMLPLVISEEEFIKLETKDGLKEFSLSIVHSWEKEKDKNIFLLSPNLLQKTTIQVLLDPMVKEENSEEIDFILPFLKLSSLGGVNSLGVSSLEHITHSLLGRPLSRQLMSLVAGLRNGALLLTGGKGSGKSTLAKAICKEAFDKLDAHVERVDCKALRGKRLENIQKTLEVAFSEAVWMQPSVVLLDDLDLIAGLPAVPEHEHSPDAVQSQRLAHALNDMIKEFISMGSLVALIATSQSQQSLHPLLVSAQGVHIFQCVQHIQPPNQEQRCEILCNVIKNKLDCDINKFTDLDLQHVAKETGGFVARDFTVLVDRAIHSRLSRQSISTREKLVLTTLDFQKALRGFLPASLRSVNLHKPRDLGWDKIGGLHEVRQILMDTIQLPAKYPELFANLPIRQRTGILLYGPPGTGKTLLAGVIARESRMNFISVKGPELLSKYIGASEQAVRDIFIRAQAAKPCILFFDEFESIAPRRGHDNTGVTDRVVNQLLTQLDGVEGLQGVYVLAATSRPDLIDPALLRPGRLDKCVYCPPPDQVSRLEILNVLSDSLPLADDVDLQHVASVTDSFTGADLKALLYNAQLEALHGMLLSSGLQDGSSSSDSDLSLSSMVFLNHSSGSDDSAGDGECGLDQSLVSLEMSEILPDESKFNMYRLYFGSSYESELGNGTSSDLSSQCLSAPSSMTQDLPGVPGKDQLFSQPPVLRTASQEGCQELTQEQRDQLRADISIIKGRYRSQSGEDESMNQPGPIKTRLAISQSHLMTALGHTRPSISEDDWKNFAELYESFQNPKRRKNQSGTMFRPGQKVTLA [PEX1]”, the melting temperature was found to be 51.2 °C in the series on HeLa Kyoto [1] (cell cycle stage: G1/S) and 50.6 °C in the series on HeLa Kyoto [1] (cell cycle stage: mitosis). In the series with HeLa Kyoto [2], the “solubility change mitosis (log2)” value is -0.0568. In addition, the “solubility in G1/S (log2)” value in the series with HeLa Kyoto [3] was -0.083. In addition, the thermal stability score was -0.296 with HeLa Kyoto [4] (setting [5]) and -0.803 in the series with HeLa Kyoto [4] (cell cycle stage: mitosis).

Turning to “MWIPVVGLPRRLRLSALAGAGRFCILGSEAATRKHLPARNHCGLSDSSPQLWPEPDFRNPPRKASKASLDFKRYVTDRRLAETLAQIYLGKPSRPPHLLLECNPGPGILTQALLEAGAKVVALESDKTFIPHLESLGKNLDGKLRVIHCDFFKLDPRSGGVIKPPAMSSRGLFKNLGIEAVPWTADIPLKVVGMFPSRGEKRALWKLAYDLYSCTSIYKFGRIEVNMFIGEKEFQKLMADPGNPDLYHVLSVIWQLACEIKVLHMEPWSSFDIYTRKGPLENPKRRELLDQLQQKLYLIQMIPRQNLFTKNLTPMNYNIFFHLLKHCFGRRSATVIDHLRSLTPLDARDILMQIGKQEDEKVVNMHPQDFKTLFETIERSKDCAYKWLYDETLEDR [TFB2M]”, the melting temperature with HeLa Kyoto [1] (cell cycle stage: G1/S) was found to be 50.5 °C; in the series on HeLa Kyoto [1] (cell cycle stage: mitosis) it was 50.7 °C. In the series on HeLa Kyoto [2], the “solubility change mitosis (log2)” value is -0.038. Moreover, the “solubility in G1/S (log2)” value with HeLa Kyoto [3] worked out at 0.194. Moreover, the thermal stability score was determined as 0.218 in the series on HeLa Kyoto [4] (setting [5]) and 1 in the series with HeLa Kyoto [4] (cell cycle stage: mitosis).
